Measured values reported in paper PMC6325134 (Nature Communications, 2019).

B1: Fab 10E8 3R conjugated with KK114 (Fab, V domains shown)
VH: EVQLVESGGGLVKPGGSLRLSCSASGFDFDNAWMTWVRQPPGKGLEWVGRITGPGEGWSVDYAAPVEGRFTISRLNSINFLYLEMNNLRMEDSGLYFCARTGKYYDFWSGYPPGEEYFQDWGRGTLVTVSS
VL: SYELTQETGVSVALGRTVTITCRGDSLRRHYASWYQKKPGQAPILLFYGKRNRPSGVPDRFSGSARGNRASLTISGAQAEDDAEYYCSSRDKSGSRLSVFGGGTKLTVL
notes: also called 3R mutant
B2: Fab 10E8 3R-WG conjugated with KK114 (Fab, V domains shown)
VH: EVQLVESGGGLVKPGGSLRLSCSASGFDFDNAWMTWVRQPPGKGLEWVGRITGPGEGWSVDYAAPVEGRFTISRLNSINFLYLEMNNLRMEDSGLYFCARTGKYYDFGSGYPPGEEYFQDWGRGTLVTVSS
VL: SYELTQETGVSVALGRTVTITCRGDSLRRHYASWYQKKPGQAPILLFYGKRNRPSGVPDRFSGSARGNRASLTISGAQAEDDAEYYCSSRDKSGSRLSVFGGGTKLTVL
notes: also called 3R/WG mutant

Target: T1, HIV-1 envelope glycoprotein Env_(JR-CSF) on intact virions (HIV-1 group M subtype B, isolate JR-CSF, UniProt P20871)
T1 construct: also called JR-CSF Env-WT; JR-CSF virions; source: 293T cells transfected with the Env(-) pCHIV plasmid and the full-length JR-CSF Env clone; on pseudovirions purified by ultracentrifugation through a 20% sucrose cushion
Assay: STED microscopy of fluorescent Fab on single virions
Details: one partner purified

Binder	binding result
B1	binds
B2	binds
